Our source for the self-cleavage values is the RNAGym collection of RNA variant scans (doi:10.7554/elife.80360).

B1: Hammerhead Ribozyme (parent)
chain: ACCGGAUGUGCUUUCCGGUCUGAUGAGUCCGUGAGGACGAAACAG

In this data set the parent is B1. In words: self-cleavage, relative activity (ratio to wild type); higher = more cleavage; co-transcriptional.
ACCGGAUGUGCUGUCCGGUCUGAUGAGUCCGGGAGGACGAAACAG [U13G U32G]: the self-cleavage was 0.74. The result for ACCGGAUGUGCUUUCCGGUCUGAUGAGUCCGUGAAGAUGAAACAG [G35A C38U] reads 0.587. The result for ACCGGAUGUGCUUUCCGGUCUGUUGAGUCCGUGAGGACGAAGCAG [A23U A42G] reads 0.375. The figure for ACCGGAUAUGCUUACCGGUCUGAUGAGUCCGUGAGGACGAAACAG [G8A U14A] is 0.866; for ACCGGAUAUGCGUUCCGGUCUGAUGAGUCCGUGAGGACGAAACAG [G8A U12G] it is 1.25; for ACGGGAUGUGCUUUCCGGUCUGAUGAGUCCGUGAGUACGAAACAG [C3G G36U] it is 0.278.

As for ACCGGAUGUGCUUUCCGGUCUGAUGAGUCGGUGAGGACGAAAAAG [C30G C43A], the self-cleavage amounted to 0.287. As to ACCGGAUGGGCUUUCCGGUCUGAUGAGUGCGUGAGGACGAAACAG [U9G C29G], the self-cleavage was determined as 0.534. The figure for ACCGGAUGUGCUUUCCUGUCUGAUGAGUCCGUGAGUACGAAACAG [G17U G36U] is 0.46; for ACCGGAUGUGCUUUCCAGUCUGAUGAUUCCGUGAGGACGAAACAG [G17A G27U] it is 0.495. The result for AACGGAUGUGCUUUCCGGUCUGAUGUGUCCGUGAGGACGAAACAG [C2A A26U] reads 0.374. The result for ACCGGAUGUGCUUUCCGGUCUUAGGAGUCCGUGAGGACGAAACAG [G22U U24G] reads 0.361; that for ACCGGAUGUGCUUUCUGGUCUGAUGAGUCCGUGUGGACGAAACAG [C16U A34U], 0.755.

On to ACCGGAUGUGCUUUCCGAUCUGAUGAGUCCGUGAGGCCGAAACAG [G18A A37C], for which the self-cleavage was 0.611. For ACCGGAUGUGCUUUCCGGUCUGAUGAGUCCGUGAGGACGAGGCAG [A41G A42G], the self-cleavage was found to be 0.335. The result for ACCGGAUGUGCUUUCCGGUGUGAUGAGUCCGUGAGGACGAAACGG [C20G A44G] reads 0.629. The figure for ACUGGAUGUGCUUUCCGGUCUGAUGAGUACGUGAGGACGAAACAG [C3U C29A] is 0.593. Take AGCGGAUGUGCUUUCCGGUCUGAUGAGUCCGUGAGGACGAAACUG [C2G A44U]: the self-cleavage is 0.323. The figure for ACGGGAUGUGCUUUCCGGUCUGAUGAGUCCGUGUGGACGAAACAG [C3G A34U] is 0.389. The result for ACCGGAUGUGCUUUCCGGUCUGAUGAUUGCGUGAGGACGAAACAG [G27U C29G] reads 0.366; that for ACCGGAUGUGCUUGCCGGUCUGAUGAGUCCGUGUGGACGAAACAG [U14G A34U], 0.782.

As for ACCCGAUGUGCUUUCCCGUCUGAUGAGUCCGUGAGGACGAAACAG [G4C G17C], the self-cleavage stood at 0.291. The figure for UCCGGAUCUGCUUUCCGGUCUGAUGAGUCCGUGAGGACGAAACAG [A1U G8C] is 0.599; for ACCGGAUGUGCCUUCCGGUCUGAUGAGUCCGUCAGGACGAAACAG [U12C G33C] it is 0.817. The figure for ACCGGCUGUGCUUUCCGGUCUGAUGAGUCCGUGAGGGCGAAACAG [A6C A37G] is 0.333. For the variant ACCGGAUGUGCUUUCCGGUCUGAAGAGUCCGUGAGGAGGAAACAG [U24A C38G], the self-cleavage turned out to be 0.645. The figure for ACCGGAUGUGCUUUCCGGUCUGAUGAGUCCGUCAGGACGAAAGAG [G33C C43G] is 0.28. Turning to ACCGGAUGUGCUUUCCCGUCAGAUGAGUCCGUGAGGACGAAACAG [G17C U21A], the self-cleavage is 0.306. The figure for ACCGGAUGUGCUUUCCGGUCUGGUGAAUCCGUGAGGACGAAACAG [A23G G27A] is 0.297; for ACCGGAUGUGCUAUACGGUCUGAUGAGUCCGUGAGGACGAAACAG [U13A C15A] it is 0.926. The figure for ACCGGAUGUGCUCUCCGGUCUGAUGAGUCCGUGAGGACGAAAGAG [U13C C43G] is 0.278; for ACCGGAUGUGGUUUCGGGUCUGAUGAGUCCGUGAGGACGAAACAG [C11G C16G] it is 0.999; for ACCGGAUGUGCUUUCCAGUCUGAUGAGUCCGUGAGUACGAAACAG [G17A G36U] it is 0.418. As to ACCGGAUGUGCAUUCCGGUCUGAUGAGGCCGUGAGGACGAAACAG [U12A U28G], the self-cleavage stood at 0.92. The figure for ACCGGAUGUGCUUUCCGGUCUGAAGACUCCGUGAGGACGAAACAG [U24A G27C] is 0.685; for ACCGGAUGUGCUUCCCGGUCUGAUGCGUCCGUGAGGACGAAACAG [U14C A26C] it is 0.371. The figure for ACGGGAUGUGCUUUCCGGUCUGAUGAGUCCGUGAGGACGAAACUG [C3G A44U] is 0.32; for ACCGGAUGUGCUUUUCGGUCUGAUGCGUCCGUGAGGACGAAACAG [C15U A26C] it is 0.424; for ACCGGAUGUGCUUUUCGGUCUGAUGGGUCCGUGAGGACGAAACAG [C15U A26G] it is 0.313. The figure for ACCGGAUGUGCUUUCCGGUCUGAUGAGUCCGUGAGGACUAAACAU [G39U G45U] is 0.445. ACCGGAUGUGCUCUCCGGUCUGAUGAGUCCGUGAGAACGAAACAG [U13C G36A]: the self-cleavage is 0.701. Turning to ACCGGAUGUGCUUUCCGGCCUGAGGAGUCCGUGAGGACGAAACAG [U19C U24G], the self-cleavage turned out to be 0.552. Consider ACCGGAUGUGCUUUCCGGUCUGAUGAGUCCGUGAGGUCUAAACAG [A37U G39U], for which the self-cleavage was found to be 0.362. The figure for ACCGGAUGUGCUUUCCGGUCUGUUGACUCCGUGAGGACGAAACAG [A23U G27C] is 0.308; for ACCGGGUGUGCUUUCCGGUCUGAUGAGUCCGUGAAGACGAAACAG [A6G G35A] it is 0.302. The figure for ACCGGAUGUGCUUUCAGGUCUGAUGAGUCCGUGAGGACAAAACAG [C16A G39A] is 0.356.

ACCGGAUGUGCUUUCCGGUCUGCUGAGUCCAUGAGGACGAAACAG [A23C G31A]: the self-cleavage turned out to be 0.68.

As for ACCGGAUGUGCUUGCCGGUCUGAUGAGUCCGUCAGGACGAAACAG [U14G G33C], the self-cleavage was found to be 0.528. The figure for ACCGGAUAUGCUUUCCGGUCUGAUGAGCCCGUGAGGACGAAACAG [G8A U28C] is 1.36. The figure for ACCGGAUGUGCUUUCCGGUCUGCUGAGUCCGCGAGGACGAAACAG [A23C U32C] is 0.509; for ACCGGAUGGGCUUUCCGGUCUGAUGAGUCCGUCAGGACGAAACAG [U9G G33C] it is 0.78. CCCGGAUGUGCUUUCCGGUCUGAUGAGUCCGCGAGGACGAAACAG [A1C U32C]: the self-cleavage came to 0.514. The figure for ACCGGAUGUGGUUUCCGGUCUGAUGAGUCCGUGAGGAUGAAACAG [C11G C38U] is 1.09; for ACCCGAUGUGCUUUCCGGUCUGAUGAGUCCGUGAGGACGAAACAC [G4C G45C] it is 0.4; for ACCGGAUGUGCUUUCCGGACUGAUGAGUCCGUGAGGACGCAACAG [U19A A40C] it is 0.339. The figure for ACCGGAUGUGAUUUCCGGUCUGAUGAGUCAGUGAGGACGAAACAG [C11A C30A] is 1.1; for ACCAGAUGUGCUUUCCGGUCUGAUGAGUCCGUGAUGACGAAACAG [G4A G35U] it is 0.382.
